Laboratory results taken from article PMC13324253 (NPJ Vaccines, 2026).
Where no end group is shown, it is not given here.

T1: junctional peptide P21 (NPDPNANPNVDPNAN) (Plasmodium falciparum, also: biotin, end not given here)
T1 construct: junctional 15-mer peptide of PfCSP; Biotinylated, held on streptavidin-coated plates in the ELISA; Probably a synthetic peptide (surmise); also called peptide 21
T1 chain: NPDPNANPNVDPNAN

T2: major repeat peptide P29 (NANPNANPNANPNAN) (Plasmodium falciparum, also: biotin, end not given here)
T2 construct: major repeat 15-mer peptide of PfCSP; Biotinylated, held on streptavidin-coated plates in the ELISA; Probably a synthetic peptide (surmise)
T2 chain: NANPNANPNANPNAN

B1: one strong PfCSP-binding antibody of R21-immunized mouse 5116 (antibody, V domains shown)
VH: QIQLLQSGPELVKPGASVRISCKASGYTLTDHYINWVKQRPGQGLEWIGWIYPGSAEIKFNEKFKGKASLTVDTSSSTAYMQLSSLTSEDSAVYFCARSGYGGLDYWGQGSTLTVSS
VL: DLGMTQSHKFMSTSVGDRVTITCKASQDVGTAVAWYQQKPGQSPKLLIYWASTRHTGVPDRFTGSGSGTDFTLTITNVQSEDLADYFCQQFTIYPWTFGGGTKLEIK
notes: Expressed IgG from a single sorted B cell; source: Expi293, transfected with RATP-Ig cassettes, in culture supernatant
B2: P21/P29 double binder of mouse 5147 (PADRE-LuS-3T-immunized mouse) (antibody, V domains shown)
VH: DVQLQESGPGLVKPSQSLSLTCSVTGYSITSGYYWNWIRQFPGNKLEWMGYISYDGSNNYNPSLKNRISITRDTSKNQFFLKLNSVTTEDTATYYCARDDYDGFDYWGQGTTLTVSS
VL: DIQMTQSPSSLSASLGGKVTITCKASQDINKYIAWYQHKPGKGPRLLIHYTSTLQPGIPSRFSGSGSGRDYSFSISNLEPEDIATYYCLQYDNLWTFGGGTKLEIK
notes: as for B1
B3: one strong P29-binding antibody of R21-immunized mouse 5116 (antibody, V domains shown)
VH: QVQLQQSGAELARPGASVKLSCKASGYTFTSYAISWVKQRTGQGLEWIGEIYPRSGNIYYNEKFKGKATLTADKSSSTAYMELRSLTSEDSAVYFCARRGDVYFGGYWGQGTTLTVSS
VL: DIVMTQSHKFMSTSVGDRVIITCKASQDVGTAVVWYQQKPGQSPKLLIYWASTRHTGVPDRFTGSGSGTDFTLTISNVQSEDLADYFCQQYNSYPLTFGAGTKLELK
notes: as for B1

Key:
Test in all cases: ELISA; biotinylated P21 or P29 (2 ug/ml) on streptavidin-coated plates, PfCSP (2 ug/ml) coated on high-binding plates; 100 ul RATPIg supernatant, 1 h at room temperature; peroxidase goat anti-mouse IgG, OD450
Settings in all cases: one partner purified
[1] = target: T3, Plasmodium falciparum circumsporozoite protein (PfCSP), full-length (Plasmodium falciparum, 3D7 (strain not …, UniProt Q7K740))
T3 construct: Plasmodium falciparum circumsporozoite protein, called full-length; recombinant 'full-length' PfCSP may lack the signal peptide and the GPI anchor signal (surmise); also called flCSP

[2] = target: T1, junctional peptide P21 (NPDPNANPNVDPNAN)
[3] = target: T2, major repeat peptide P29 …

T3 sequence (Q7K740 19-374): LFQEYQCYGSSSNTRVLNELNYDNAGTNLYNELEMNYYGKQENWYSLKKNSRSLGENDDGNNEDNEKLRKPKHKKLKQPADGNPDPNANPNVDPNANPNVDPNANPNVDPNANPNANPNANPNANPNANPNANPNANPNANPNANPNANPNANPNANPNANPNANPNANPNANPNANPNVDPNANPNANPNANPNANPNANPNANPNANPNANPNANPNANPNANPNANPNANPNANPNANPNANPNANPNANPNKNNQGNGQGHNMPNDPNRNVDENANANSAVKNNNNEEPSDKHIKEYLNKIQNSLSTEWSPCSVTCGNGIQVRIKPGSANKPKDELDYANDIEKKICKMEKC

| Binder | binding result [1] | binding result [2] | binding result [3] |
| --- | --- | --- | --- |
| B1 | binds | – | – |
| B2 | – | binds | binds |
| B3 | – | – | binds |
